Assay results published in US20230272099A1 (Chugai, published 2023).
Positions count from the first letter of the chain named.

T1: human FcgRIIa type H extracellular domain (human, UniProt P12318 34-217)
T1 construct: extracellular domain; also called hFcgRIIaH
T1 sequence (looked up): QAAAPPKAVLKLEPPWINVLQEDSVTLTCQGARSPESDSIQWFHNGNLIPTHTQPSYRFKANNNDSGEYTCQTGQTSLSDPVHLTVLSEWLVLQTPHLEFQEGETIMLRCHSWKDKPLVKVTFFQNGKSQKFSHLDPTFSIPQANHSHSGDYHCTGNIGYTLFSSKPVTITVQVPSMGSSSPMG

T2: human FcgRIIa type R extracellular domain (human, UniProt P12318 34-217)
T2 construct: extracellular domain; also called hFcgRIIaR
T2 sequence (looked up): T1 sequence (looked up) with H134R

T3: human FcgRIIb extracellular domain (human, UniProt P31994 43-217)
T3 construct: extracellular domain; also called hFcgRIIb
T3 sequence (looked up): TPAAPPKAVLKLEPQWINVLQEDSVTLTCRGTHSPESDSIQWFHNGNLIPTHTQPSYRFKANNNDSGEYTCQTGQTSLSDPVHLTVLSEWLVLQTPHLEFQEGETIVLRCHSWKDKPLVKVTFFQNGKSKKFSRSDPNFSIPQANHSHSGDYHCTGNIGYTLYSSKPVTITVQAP

B1: A375-SCF043a/B167-Lamlib (antibody, human IgG1, lambda)
heavy: EVQLVESGGGLVKPGGSLRLSCAASGFTFSTFTMNWVRQAPGKGLEWVSSISSKSTYIEYADSFKVRFTISRDNAKNSLYLQMNSLRAEDTAVYYCARYGAKNFLNWVFDYWGQGTLVTVSSASTKGPSVFPLAPSSKSTSGGTAALGCLVKDYFPEPVTVSWNSGALTSGVHTFPAVLQSSGLYSLSSVVTVPSSSLGTQTYICNVNHKPSNTKVDKRVEPKSCDKTHTCPPCPAPELLNGPSVFLFPPKPKDTLMISRTPEVTCVVVDVSDEDPEVKFNWYVDGVEVHNAKTKPREEQYNSTYRVVSVLTVLHQDWLNGKEYKCKVSNKALPKPIEKTISKAKGQRREPQVYTLPPSREEMTKNQVSLTCLVKGFYPSDIAVEWESNGQPENNYKTTPPVLDSDGSFFLYSKLTVKKSRWQQGNVFSCSVMHEALHNHYTQKSLSLSP
light: QSALTQPPSASGSPGQTVTISCTGTRYDVGYYEYVSWYQQHPGKAPKLMIYETSKRLSGVPDRFSGSKSGNTASLTVSGLQAEDEADYYCSSYRYEHQVSFGGGTKLTVLGQPKAAPSVTLFPPSSEELQANKATLVCLISDFYPGAVTVAWKADSSPVKAGVETTTPSKQSNNKYAASSYLSLTPEQWKSHRSYSCQVTHEGSTVEKTVAPTECS
B2: A375-SCF043aPh/B167-Lamlib (antibody, human IgG1, lambda)
heavy: B1 heavy with L240W
light: B1 light
B3: A375-SCF057a/B167-Lamlib (antibody, human IgG1, lambda)
heavy: B1 heavy with Q316R, K418D
light: B1 light
B4: A375-SCF057aPh/B167-Lamlib (antibody, human IgG1, lambda)
heavy: B1 heavy with L240W, Q316R, K418D
light: B1 light
B5: A375-SCF059aPh/B167-Lamlib (antibody, human IgG1, lambda)
heavy: B1 heavy with L240W, Q316R, R348P
light: B1 light
notes: copies: 2 + 2
B6: A375-TT14/B167-Lamlib (antibody, human IgG1, lambda)
heavy: B1 heavy with R219K, L239Y, N241G, P243D, T255V, V269I, D273H, T312P, R348P, K418D
light: B1 light
notes: copies: 2 + 2
B7: A375-SCF059a/B167-Lamlib (antibody, human IgG1, lambda)
heavy: B1 heavy with Q316R, R348P
light: B1 light
notes: copies: 2 + 2
B8: A375-SCF056aPh/B167-Lamlib (antibody, human IgG1, lambda)
heavy: B1 heavy with L240W, Q316R, R348P, K418D
light: B1 light
notes: copies: 2 + 2
B9: A375-SCF060a/B167-Lamlib (antibody, human IgG1, lambda)
heavy: B1 heavy with L240W, Q300L, Q316R, K331T, R348P, K418D
light: B1 light
notes: copies: 2 + 2
B10: A375-SCF056a/B167-Lamlib (antibody, human IgG1, lambda)
heavy: B1 heavy with Q316R, R348P, K418D
light: B1 light
notes: copies: 2 + 2

biological target: T4, human FcgRIa extracellular domain (human, UniProt P12314 16-292); test: SPR 25C
T4 construct: extracellular domain; also called hFcgRIa
T4 sequence (P12314 16-292): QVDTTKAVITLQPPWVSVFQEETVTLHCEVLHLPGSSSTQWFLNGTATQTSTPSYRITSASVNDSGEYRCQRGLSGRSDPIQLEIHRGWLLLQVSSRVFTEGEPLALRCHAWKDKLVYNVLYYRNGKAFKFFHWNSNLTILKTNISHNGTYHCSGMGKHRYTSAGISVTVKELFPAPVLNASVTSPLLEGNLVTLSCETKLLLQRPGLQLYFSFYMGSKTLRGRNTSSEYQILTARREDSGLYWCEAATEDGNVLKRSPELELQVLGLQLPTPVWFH

| binding per 1RU antibody [RU] | relative binding (A375-G1T3/B167-Lamlib=1) | Binder |
| --- | --- | --- |
| 0.0429 | 0.53 | B1 |
| 0.0011 | 0.01 | B2 |
| 0.0405 | 0.5 | B3 |
| 0.0021 | 0.03 | B4 |
| 0.0089 | 0.11 | B5 |
| 0.0045 | 0.05 | B6 |
| 0.038 | 0.47 | B7 |
| 0.0019 | 0.02 | B8 |
| 0.0021 | 0.03 | B9 |
| 0.0395 | 0.49 | B10 |

biological target: T1, human FcgRIIa type H extracellular …; test: SPR 25C

| binding per 1RU antibody [RU] | relative binding (A375-G1T3/B167-Lamlib=1) | Binder |
| --- | --- | --- |
| 0.0552 | 0.97 | B1 |
| 0.0349 | 0.62 | B2 |
| 0.0525 | 0.93 | B3 |
| 0.0365 | 0.64 | B4 |
| 0.0332 | 0.59 | B5 |
| 0.0042 | 0.07 | B6 |
| 0.0502 | 0.88 | B7 |
| 0.0314 | 0.55 | B8 |
| 0.0463 | 0.82 | B9 |
| 0.0529 | 0.93 | B10 |

biological target: T2, human FcgRIIa type R extracellular …; test: SPR 25C

| binding per 1RU antibody [RU] | relative binding (A375-G1T3/B167-Lamlib=1) | Binder |
| --- | --- | --- |
| 0.0361 | 0.78 | B1 |
| 0.0349 | 0.75 | B2 |
| 0.0367 | 0.79 | B3 |
| 0.0364 | 0.79 | B4 |
| 0.0319 | 0.69 | B5 |
| 0.0067 | 0.14 | B6 |
| 0.0319 | 0.69 | B7 |
| 0.0299 | 0.64 | B8 |
| 0.0459 | 0.99 | B9 |
| 0.0331 | 0.71 | B10 |

biological target: T3, human FcgRIIb extracellular domain; test: SPR 25C

| binding per 1RU antibody [RU] | relative binding (A375-G1T3/B167-Lamlib=1) | Binder |
| --- | --- | --- |
| 0.0419 | 3.82 | B1 |
| 0.0339 | 3.1 | B2 |
| 0.0412 | 3.76 | B3 |
| 0.0345 | 3.15 | B4 |
| 0.0291 | 2.66 | B5 |
| 0.0805 | 7.34 | B6 |
| 0.0358 | 3.27 | B7 |
| 0.0292 | 2.67 | B8 |
| 0.0472 | 4.31 | B9 |
| 0.0399 | 3.64 | B10 |

biological target: T5, human FcgRIIIa F158 extracellular domain (human, UniProt P08637 17-208); test: SPR 25C
T5 construct: extracellular domain; also called hFcgRIIIaF
T5 sequence (P08637 17-208): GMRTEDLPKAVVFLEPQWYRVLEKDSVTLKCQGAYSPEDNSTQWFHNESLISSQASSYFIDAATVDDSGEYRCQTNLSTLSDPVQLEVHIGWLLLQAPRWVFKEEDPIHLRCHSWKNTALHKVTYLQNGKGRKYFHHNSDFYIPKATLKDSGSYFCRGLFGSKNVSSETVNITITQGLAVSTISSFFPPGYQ

| binding per 1RU antibody [RU] | relative binding (A375-G1T3/B167-Lamlib=1) | Binder |
| --- | --- | --- |
| 0.0011 | 0.05 | B1 |
| 0.0001 | 0 | B2 |
| 0.0013 | 0.06 | B3 |
| -0.0003 | -0.02 | B4 |
| 0.0003 | 0.01 | B5 |
| 0 | 0 | B6 |
| 0.001 | 0.05 | B7 |
| 0.001 | 0.05 | B8 |
| 0.0011 | 0.05 | B9 |
| 0.0011 | 0.05 | B10 |

biological target: T6, human FcgRIIIa V158 extracellular domain (human, UniProt P08637 17-208); test: SPR 25C
T6 construct: extracellular domain; also called hFcgRIIIaV
T6 sequence (P08637 17-208 F176V): as the sequence (P08637 17-208) above, with F160V counted along it

| binding per 1RU antibody [RU] | relative binding (A375-G1T3/B167-Lamlib=1) | Binder |
| --- | --- | --- |
| 0.0025 | 0.04 | B1 |
| 0.0001 | 0 | B2 |
| 0.0025 | 0.04 | B3 |
| 0.0005 | 0.01 | B4 |
| 0.0028 | 0.04 | B5 |
| 0.0003 | 0 | B6 |
| 0.0021 | 0.03 | B7 |
| 0.001 | 0.01 | B8 |
| 0.0008 | 0.01 | B9 |
| 0.0023 | 0.03 | B10 |

biological target: human FcRn (human, UniProt P55899 24-290; P61769 21-119); test: SPR 25C pH 6.0, steady state
Procedure, shortened: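 Antibody (~400 RU) captured on anti-Fab-lambda sensor chip, human FcRn injected as analyte.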

| Kd [nM] | Binder |
| --- | --- |
| 1180 | B1 |
| 1210 | B2 |
| 928 | B3 |
| 909 | B4 |
| 1050 | B5 |
| 1770 | B6 |
| 1030 | B7 |
| 1000 | B8 |
| 1010 | B9 |
| 956 | B10 |
